# According to the nanobody polyreactivity screen of Harvey et al. (2022):
# Experiment: yeast display, Sf9 membrane polyspecificity reagent, FACS + sequencing; frameworks hold sequencing errors
# How it was run: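 A nanobody's polyreactivity label depends on the gate it was sorted from. Yeast display cells were stained with 10% biotinylated, detergent-solubilized Sf9 membrane reagent for 1 hour at 4 °C, enriched on streptavidin microbeads and sorted by FACS. The low and high (top ~1%) gates were set on anti-HA fluorescence for expression and streptavidin fluorescence for reagent binding.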
row,Sequence,polyreactivity (PSR sort gate)
1,QVQLVESGGGLVQAGGSLRLSCAASGIIFVRYAMGWYRQAPGKERELVAAISSGGGSTYYADSVKGRFTISRDNAKNTVYLQMNSLKPEDTAVYYCATVVYPYSPRYDYWGQGTQVTVSS,high polyreactivity
2,QVQLVESGGGLVQAGGSLRLSCAASGIIFVRYAMGWYRQAPGKERELVAAITRNGGRTYYADSVKGRFTISRDNAKNTVYLQMNSLKPEDTAVYYCAAYPAYPGTLEMDYWGQGTQVTVSS,high polyreactivity
3,QVQLVESGGGLVQAGGSLRLSCAASGIIFVSNAMGWYRQAPGKERELVATINWSDDSTYYADSVKGRFTISRDNAKNTVYLQMNSLKPEDTAVYYCNKELYPVGDYEYWGLGTQVTVSS,low polyreactivity
4,QVQLVESGGGLVQAGGSLRLSCAASGIIFVYNTMGWYRQAPGKERELVAAISYSGGGTYYADSVKGRFTISRDNAKNTVYLQMNSLKPEDTAVYYCAAETYYAPYDYWGQGTQVTVSS,high polyreactivity
5,QVQLVESGGGLVQAGGSLRLSCAASGIIFWGNAMGWYRQAPGKERELVATITGRGGSTYYADSVKGRFTISRDNAKNTVYLQMNSLKPEDTAVYYCAASGGRPIFFYDVWGGIVRHDYWGQGTQVTVSS,low polyreactivity
6,QVQLVESGGGLVQAGGSLRLSCAASGIIFWHYAMGWYRQAPGKERELVAAISSRGGYTYYADSVKGRFTISRDNAKNTVSLQMNSLKPEDTAVYYCNAGYYTHRYRFLVQGDYWGQGTQVTVSS,high polyreactivity
7,QVQLVESGGGLVQAGGSLRLSCAASGIIFWRYAMGWYRQAPGKERELVAAISRRGGSTYYADSVKGRFTISRDNAKITVYLQMNSLKPEDTAVYYCAVLDWTLHYRSDYWGQGTQVTVSS,high polyreactivity
8,QVQLVESGGGLVQAGGSLRLSCAASGIIFYDYAMGWSRQAPGKERELVATITRGGGTKYADSVKGRFTISRDNAKNTVYLQMNSLKPEDTAVYYCAADSHGVYEGDYWGQGTQVTVSS,low polyreactivity
9,QVQLVESGGGLVQAGGSLRLSCAASGIIFYDYAMGWYRPAPGKERELVAAINYSGGSTYYADSVKGRFTISRDNAKNTVYLQMNSLKPEDTAVYYCAADNAVWEYDYWGQGTQVTVSS,low polyreactivity
10,QVQLVESGGGLVQAGGSLRLSCAASGIIFYDYAMVWYRQAPGKERELVAAISWGGGSTSYADSVKGRFTISRDNAKNTVYLQMNSLKPEDTAVYYCNKVSLSKRRDYYWGQGTQVTVSS,high polyreactivity
11,QVQLVESGGGLVQAGGSLRLSCAASGIIFYEFTMGWYRQAPGKERELVATISWSGGSTYYADSVKGRFTISRDNAKNTVYLQMNSLQPEDTAVYYCAADFADVQSISPDSAHEYDYWGQGTQVTVSS,low polyreactivity
12,QVQLVESGGGLVQAGGSLRLSCAASGIIFYFYAMGWDSQAPGKERELVAAISGTGGRTYYADSVKGRFTISRDNAKNTVYLQMNSLKPEDTAVYYCAADRGGLRWFWQVLYDYWGQGTQVTESS,low polyreactivity
13,QVQLVESGGGLVQAGGSLRLSCAASGIIFYFYAMGWYRQAPGKERELVAAISRGGSTKYADSVKGRFTISRDNAKNTVYLQMNSLKPEDTAVYYCAATRRRPSEYYYWGQGTQVTVSS,high polyreactivity
14,QVQLVESGGGLVQAGGSLRLSCAASGIIFYGYAMGWYRQAPGKERELVAGISSGGSTYYADSVKGRFTISRDNAKNTVYLQMNSLKPEDTAVYYCNADGGYSYESTDHYGYDYWGQGTQVTVSS,low polyreactivity
15,QVQLVESGGGLVQAGGSLRLSCAASGIIFYGYAMGWYRQATGKERELVAAISSGGGTNYADSVKGRFTISRDNAKNTVYLQMNSLKPEDTAVYYCAARQYRYYYWGQGTQVTVSS,high polyreactivity
16,QVQLVESGGGLVQAGGSLRLSCAASGIIFYKYAMGSYRQSPWKERELVAVISRGGGSTYYADSVKGRFTISRDNAKNTVYLQMNSLKPEDTAVYYFAADPRVTRSYTYDYWGQGTQVTVSS,high polyreactivity
17,QVQLVESGGGLVQAGGSLRLSCAASGIIFYLYAMGWYRQAPGKERELVAAISWRGGSTYYADSVKGRFTISRDNAKNTVYLQMNSLKPEDTAVYYCNKTQPIDLYGYWGQGTQVTVSS,high polyreactivity
18,QVQLVESGGGLVQAGGSLRLSCAASGIIFYLYTMGWYRQAPGKERELVAAITRGGSTYYADSVKGRFTISRDNAKNTVYLQMNSLKPEDTSVYYCAAKHGPGYRRWYDYWGQGTQVTVSS,high polyreactivity
19,QVQLVESGGGLVQAGGSLRLSCAASGIIFYPYAMGVYRKAPGKEREMVADITSGGGTNYADSVKGRFTISRDYAKNTVYLKMNSLKPEDTAVYYCAAEVRGYHWGTYYEFYYWGQGTQVTVSS,low polyreactivity
20,QVQLVESGGGLVQAGGSLRLSCAASGIIFYPYAMGWYRQAPGKERELVAAISIGGGSTYYADSVKGRFTISRDNAKNTVYLQMNSLKPEDTAVYYCAAGTPYGILGYYYWGQGTQVTVSS,low polyreactivity
21,QVQLVESGGGLVQAGGSLRLSCAASGIIFYQNTMGWYRQAPGKERELVATITKRGGSTYYADSVKGRFTISRDNAKNTVYLQMNSLKPEDTAVYYCNAAKYAASYIGYGYWGQGTQVTVSS,high polyreactivity
22,QVQLVESGGGLVQAGGSLRLSCAASGIIFYRYAMGWYRQAPGKERELVAAISGSGGRTYYADSVKGRFTISRDNAKNTVYLQMNSLKPEDTAVYYCARVYDIYHYFYAYGGDYWGQGTQVTVSS,high polyreactivity

row,Sequence,polyreactivity (PSR sort gate)
1,QVQLVESGGGLVQAGGSLRLSCAASGIIFYRYAMGWYRQAPGKERELVAAISSSGGSTYYADSVKGRFTISRDNAKNTVYLQMNSLKPEDTAVYYCARVTTVYDGRGFVDVKRGYWGQGTQVTVSS,high polyreactivity
2,QVQLVESGGGLVQAGGSLRLSCAASGIIFYTNAMGWYRQAPGKEREFVAAINTSGGITYYADSVKGRFTISRDNAKNTVYLQMNSLKPEDTAVYYCAADQTYERHWVYYWGQGTQVTVSS,low polyreactivity
3,QVQLVESGGGLVQAGGSLRLSCAASGIIFYVYAMGWYRQAPGKERELVAAISSGGRTNYADSVKGRFTISRDNAKNTVYLQMNSLKPEDTAVYYCAAKSVRRRLGYWGQGTQVTVSS,high polyreactivity
4,QVQLVESGGGLVQAGGSLRLSCAASGIIFYVYAMGWYRQAPGKERELVAAISSTSSTYADSVKGRFTISRDNAKNTVYLQMNSLKPEDTAVFYCNTDYSDGYPAFDYWGQGTQVTVSS,low polyreactivity
5,QVQLVESGGGLVQAGGSLRLSCAASGIIFYWNAMGWYRQAPGQEREFDASISGSGGSTYADSVKGRFTISRDNAMNTVYFQMKSLKPEDTAVYYCAVLYWRPGYDYLGQGTQVTVSS,high polyreactivity
6,QVQLVESGGGLVQAGGSLRLSCAASGIIFYWYAMGWYRQAPGKERELVAAISASGASTYYADSVKGRFTISRDNAKNTVYLQMNSLKPEDTAVYYCAAEHPWSRYDYWGQGTQVTVSS,high polyreactivity
7,QVQLVESGGGLVQAGGSLRLSCAASGIIFYYAMGWYRQAPGKERELVASIRWSGDSTYYADSVKGRFTISRDNAKNTVYLQMNSLKPEDTAVYYCAAEPDSAVSYVSWRDYWGQGTQVTVSS,low polyreactivity
8,QVQLVESGGGLVQAGGSLRLSCAASGIIFYYNAMGWYRQAPGKERELVAAIDDRGDSTYYADSVKGRFTISRDNAKNTVYLEMNSLKPEDTAVYYCATDGHYLYSWYKYDYWGQGTQVTVSS,low polyreactivity
9,QVQLVESGGGLVQAGGSLRLSCAASGIIFYYNAMGWYRQAPGKERELVAAIDDRGDSTYYADSVKGRFTISRDNAKNTVYLQMNSLKPEDTAVYYCAARDRYLYFDAMDYWGQGTLVTVSS,low polyreactivity
10,QVQLVESGGGLVQAGGSLRLSCAASGIIFYYYAMGWYRQAPGKERELVAAISRSGGITYYPDSVKGRFTISRDNAKNTEYFQMNSLKAEDTAVYYGNALRLVYYHPEDDYWGQGPQVTVSS,high polyreactivity
11,QVQLVESGGGLVQAGGSLRLSCAASGIIFYYYGMGWSRQAPGKEREFVAAISTSGGNTYYADSVKGRFTISRDNAKNTVYLQMNSLKPEDTAVYYCAADDWPWGDAGVDYWGQGTQVTVSS,low polyreactivity
12,QVQLVESGGGLVQAGGSLRLSCAASGIIIGGNAMGWYRQARGKERELVAAINSDDSTYYADSVKGRFTISRDNAKNTVYLQMNSLKPEDTAVYYCAVTETYYSPYSGYWYEYDHWGQGTQVTVSS,high polyreactivity
13,QVQLVESGGGLVQAGGSLRLSCAASGIIILWNAMGWDRQAPGKERELVATISWTDGSTSYADSVKGRFTISRDNAKNTVYLQMNSLKPEDTAVYYCNVRHKSYRKSDYWGQGTQVTVSS,low polyreactivity
14,QVQLVESGGGLVQAGGSLRLSCAASGIIIPYYAMGWYRQAPGKERELVAAISSGGSTNYADSVKGRFTISRDNAKNTVYLQMNSLKPEDTAVYYCAAKYTSYASWPIWVVDQFDYWGQGTQVTVSS,low polyreactivity
15,QVQLVESGGGLVQAGGSLRLSCAASGIIIRGYAMGLYRQAPGKERELVAGITSGGRTYYADSVKGRFTISRDNAKNTVYLQMNSLKPEDTAVYYCNADAYGDDWKIYDYWGQVTQVTVSS,low polyreactivity
16,QVQLVESGGGLVQAGGSLRLSCAASGIIIVRYAMGWYRQAPGKERELVAAISWSGGRTYYADSVKGRFTISRDNAKNTVYFQINSLKPEDTAVYYCAAAPLYYHRRGYYYWGQGTQVTVSS,high polyreactivity
17,QVQLVESGGGLVQAGGSLRLSCAASGIILAYYAMRWYRQAPGKERELVASINRSGGSTYYADSVKGRFTISRDNAKNTVYFQMNSMKPEDTAVYYCDATTRGVGQWWYRYYYWGQGTQVTVSS,high polyreactivity
18,QVQLVESGGGLVQAGGSLRLSCAASGIILDPNAMGGYRQAPGKERELVAGITRSGVSTYYADSVKGRFTISRDNAKNTVYLQMKSLKPEDTAVYYCAKDRIYGSKGEDDDYWGQGTQVTVSS,low polyreactivity
19,QVQLVESGGGLVQAGGSLRLSCAASGIILGSYVMGWYRQAPGKERELVAVISFSGGSTYSADSVKGRFTISRDNAKNTVYLQMNSLKPEDTAVYYCAADNFRSYTIRSPYNYWGQGTQVTVSS,low polyreactivity
20,QVQLVESGGGLVQAGGSLRLSCAASGIILGYYAMGWYRQAPGKERELVAAINWSGASTYYADSVKGRFTISRDNAKNTVYLQMNSLKPEDTAVYYCARRAYGTRVLFDYWGQGTQVTVSS,high polyreactivity
21,QVQLVESGGGLVQAGGSLRLSCAASGIILHYYAMGSYRQAPGKERELVAAISARGGRTYYADSVKGRFTISRDNAKNTVYLQMNSLKPEDTAVYYCARYLRRSSPSPGYGYWGQGTQVTVSS,high polyreactivity
